The DeepSol protein solubility set

Experiment: soluble on expression in E. coli; label from the status in PepcDB or PDB records

Sequence	soluble on expression in E. coli
MAHHHHHHMSVCARALWQRSRLLCRCLIMCPTPLSTARWRAGHGWLSRKRGDAEAPPSRERRRHPHANTRHSHAHMMALTLDPRWNAMRRGIAGIGVCAVDGRGGAAAPGSCRLSLCSCLSPASSGGCGGADSALSEGGHCRECVCGMRGRLPSPKKPWNSLAGVLVGVRVTHAASVLEDRPVALGRLVSRLSEAAYKAEMLRTGKRDRDGEDRRGDAAQLLVVDAGTRVTVRTEGDPASGAAVAPSAMHMKGTIAKVNGNATYIILMEKGEVELSVASERIVALQPRKKLFQSARLVALV	soluble
GPLGSGDVQVTEDAVRRYLTRKPMTTKDLLKKFQTKKTGLSSEQTVNVLAQILKRLNPERKMINDKMHFSLKE	soluble
LRYNLWFGVYDGKEIKLSENFEESFLKAENPSPLPFNVSEVGAKALGKDYYRILRKTALAVSEKMVEKELRREDRYVVALVKALEEIDESINMLNEKLEDIRAVKESEITEKFEKKIRELRELRRDVEREIEEVMEKIAPNMTELVGAKVAAKLLERAGSMERLVRLPASKIQVIGAEKSLYKAFARMKKGKKAKIPKHGIIFLHPFIRTLPKAKRGKMARFLAAKLAIAAKIDYFRGEIDESLYESIRRRYEELRRK	soluble
MTATIQNEKVIVSISDKGAELQSVRLKEDNTEYLWQGDSTYWGRRAPILFPIVGRLVDNTYYVDGKPYSLTQHGFARDLTFFVKEQSETKITYIVTSNEETLKKYPYEFELLVSYELNGQSVHITYEVNNPTSKEMFFSIGAHPGFNFPLLDGESFTDYHLSFNGSERLETSVLEGPYLSNKKQLIAENTTELPLTYDLFKNDALIFEHMNTNEISIRSHKHNKFVKVEFDGFPFVGVWTPGDNAPFLCIEPWYGIADEVNPAKDFKNKKGIQSLQANETFTCRYSITIGLEHHHHHH	soluble
MLKFENVTKSFKDGNRNIEAVKDTNFEINKGDIIALVGPSGSGKSTFLTMAGALQTPTSGHILINNQDITTMKQKALAKVRMSEIGFILQATNLVPFLTVKQQFTLLKKKNKNVMSNEDYQQLMSQLGLTSLLNKLPSEISGGQKQRVAIAKALYTNPSIILADEPTAALDTENAIEVIKILRDQAKQRKKACIIVTHDERLKAYCDRSYHMKDGVLNLENETVE	not soluble
MVIMLATMLHSIAVGNLLPSYVKTICVDMNPSTVTKLMDRGTHQAIGVVTDVGLFLPLLYLKIKEIEAKE	not soluble
MGSDKIHHHHHHMHRAGDSCTRDRRSRTAWRAALFQPVRRQRPVSEQCVRCCSSNEQWLDVCRYGSGAQGVGGVRHGNCLSPFTFISRLRRSGMTTDTFGGDLPASTLVPQPSFCVQTRVAHDADEQARNLHGWSQTYDQLTAGCFVGGLTELCLDHMQLFVETTSHTLRQTCEVQKDAYWFGIPACAAGSGRIDAQVIAGDALAFRPGGIEFELLTSAGYEIFGVVVKGEVLRRYAAQVERVGLADPVPNTQVVPIGMARKAQLCATLRQLLDDGAARGTPLSSVARNNLQAAVLASLFDVGALPASEPVAMPARPRRQSIVSEARDYVLLNRDRAVSVPELCEQLHVSRRTLQYCFQDVLGMAPATYLRAIRLNGARRDLSNASRESRSVQDVAAAWGFWHLSQFATDYRKLFGMRPSETLKAATGTRVERAGAFNAVALAHH	not soluble
NNNRAPKEPTDPVTLIFTDIESSTALWAAHPDLMPDAVAAHHRMVRSLIGRYKCYEVKTVGDSFMIASKSPFAAVQLAQELQLCFLHHDWGTNALDDSYREFEEQRAEGECEYTPPTAHMDPEVYSRLWNGLRVRVGIHTGLCDIRHDEVTKGYDYYGRTPNMAARTESVANGGQVLMTHAAYMSLSAEDRKQIDVTALGDVALRGVSDPVKMYQLNTVPSRNFAALRLDREYFD	soluble
MQKQRMSGQNQKTDKRIAWPIIIMNFTGVYDYEAFARNNKFIWLDCRHLYGTDGYCDREGALALKGMIADYPAEGVHFIDSGNYHYLTKFWTDKLETPFSLIVFDHHPDMQPPLFDNILSCGSWVKDILDHNNNCKKVIIVGASDKLIQAVPKGYERQVRFYSETTLMHEEGWQNFSSGHINGPVYISIDKDVLKPASAATNWDQGSLSLWELEKLLAVILQKEQVVGIDICGECSTTLNLFEEKRETVMDSQANKELLRFIRSSSGLQ	not soluble
IYAYVPLRTPENTGHLALLDGQLELAYQPIVEVAGSDTAQYQVLLRLRKADGNLLSAGLVIPAAEAAGRIMELDQQVIEQALDILKLHQDTNQQLRLFVSQSVRTLIHEGFSDWIIKNLRERNVNGTGLVIDLRLQDAVIHAIPLKQLCKELLKHNVKFCLSQFESNSEATVLFSELPLNFVRLSQHFGDAHNHPERQKELPLLIEQAHEHNLHVIGQCIEDAQAATFMWMNGVDLIQGNLFQNV	not soluble
MSDEIVTNKSVTYVNNTTPVTITSSELDLRSCYQDDEVVIEVHAAALNPIDFITHQLCNSYIFGKYPKTYSRDYSGVIIKAGKDVDNRWKVGDKVNGMYSHIYGERGTLTHYLILNPAKDVPITHMVEVPKDENDPYDDFVYAAAWPLTFGTAFSTLYDFKKDWTSDSKVLVIGASTSVSYAFVHIAKNYFNIGTVVGICSKNSIERNKKLGYDYLVPYDEGSIVENVKKLKQSVLENDKFDMIFDSVGNHDFFPVIDQFLKPKAKNSFYVTIAGNNKADYKNISWRDFVSLSSILKAINPFKKYNWRFGHPYPPNNFIEVGNEMIKKGTYKPPIDSVYEFDQYKEAIDRLMSNRAKGKVVVKMK	soluble
MVLSVADAKKLTVPRLKEELASRGLDNTGNKPELLARLTESIEQAADELLGDAGITSDTHLLSDDILNDDILDAPSVGDESEADKLLGSVDGAEEHKTDKSEGEEKHEVHLIDKKIDEVTAETDKRARAIRFGLPVTAEDLGSDGAKAARAKRFDLPEDSKRLTSNDAKASRAERFGITPKTPAADDKLAARAARFGIPVGGAASASASKNAPNSEGKAAKLAARAKRFGGEIDDEEMEAKKKARMERFGTSN	not soluble
MKDLIELFWLRYTELQSAVGKNESDKIAVLERELELLLERIVGRKTESSEDIREQFRFAIDLLNHEAEDLGCVQRNSELLRTLVDRYVGMPLKAKVVGDEDEDTLAWHHRHLILDEDMLNDLDEPVVIVSPGYRVSFANALDAFQRNAPEGLIGCHIAELVGVHRFQNILREKLDNCFKGDTSKYTYAEDENGRTVVKSLEMSPCYSSAYKLVGAMVVIREIADRRRRAAG	not soluble
MGSDKIHHHHHHMDIKQLQYLCNLEKERHFGRAAEASFVSQPTLSMRLKNLERELDLALINRGNNFEGFTAEGERVLAWAREIVSVYQGLKLEVASLKRGVSGVLRIGAVPQSSIALSSLLAAVNKEYPQLDFQISLFSADQLLEALNAHSVDVGIGFFEFSTLQELHFQASPLTEQGVDLLFHPHHFPQLVGDAPLALDALSDVPLCLAEASRYFRRYLDSHFREMGVSPWVKVESASVLQLIQSVYVGLGCGIVPHGSLIPEMTPALTLRPLQFPPMRRQPAVVIAQAGRATALAQNFFDVAQEWLQAQS	not soluble
MADSAQDLAFTAENFESLLNEQLGESGGLEGSVLTGTVIGVSGDFAVVDVGLKSEGRVPLKEFSRGGDDAEIKIGDTVDVFVERYEDKDGLIVLSRDKARREEAWNELEKAFNDNQRVRGLIHSRVKGGFTVDLSGAIAFLPGSQVDIRPVRDIGPLLGQPQVFQILKMDRARGNIVVSRRAVLEETRAEERSKLMETLREGEILEGVVKNITDYGAFVDLGGVDGLLHVTDISWKRINHPTEALSIGQTVKVQVIRFNAETQRISLGMKQLEADPWEGVAAKYPVGTKFVGRVTNITDYGAFVELEPGVEGLVHVSEMSWTKKNVHPGKIVSTSQEVEVMILDVDPDKRRISLGLKQTMANPWSEFLEGHPIGTEVEGEIKNITEFGLFIGLTGDIDGMIHLSDLDWNRSGDEAVKDYKKGDVVQAKVLDVDVEKERISLGVKQLGEDPYREATADLRKNQIVTCVITMVQENGIEVDVNGAIGFIRKSDLARERADQRPERFAVGEKVDAKVINMDKSNRRMTLSIKAREMDEEKQAMAEYGSADSGASLGDILGAALKQAQEKARTGDDELEHHHHHH	not soluble
MGSDKIHHHHHHMATELKTFTDSQFIGKPVLADIEFIPHLEKINDFAATNGLKIFVTSSARPWGVPVGGAIVSPAKMSNHLIGHAIDMNIQIGGKLYTSNELGDFNSLPPPIKAFITTIRNHPVLRWGGDFGDPVHIDDGLNLHNPNLWKDKFPIIQSELTGLTQPGIRAVNSPRLLFLTTPLMKGDDIKVVQEKLIGKGFDLGITGADGFFGQATANAVIKFQDQEDLDPVDGIVGDKTKKALGL	not soluble
MRRTLHNELQELRGNIRVYCRIRPALKNLENSDTSLINVNEFDDNSGVQSMEVTKIQNTAQVHEFKFDKIFDQQDTNVDVFKEVGQLVQSSLDGYNVCIFAYGQTGSGKTFTMLNPGDGIIPSTISHIFNWINKLKTKGWDYKVNCEFIEIYNENIVDLLRSDNNNKEDTSIGLKHEIRHDQETKTTTITNVTSCKLESEEMVEIILKKANKLRSTASTASNEHSSRSHSIFIIHLSGSNAKTGAHSYGTLNLVDLAGSERINVSQVVGDRLRETQNINKSLSCLGDVIHALGQPDSTKRHIPFRNSKLTYLLQYSLTGDSKTLMFVNISPSSSHINETLNSLRFASKVNSTRLVSRK	soluble
MAHHHHHHMTTLPVLHLKATSLQNVTIAADLSDTTATLYTFLRSTPSAAETELALQPFLESLHAAPSSGRAALMRRPNHHLVQLLESVAVDGVFRCTPHVLPALARHSDRWLHRLGYASMDGEAANLTAVMDSSAHAASGSQRSASPPTAAPFPIMRVRATDMHQYVDPYSAYEADYLGRQEAARSSYVDASASGEARLPTNGSAAESGGLQHRDTTHPHEEASSVSAEVSALTAPGDEPQLSEPAPSASHAVTPAPTAALTSAPAIHPVLHLIANQVLQQQEEGEKTGRENAEERAHPSSSHAVLDEKLHRLMAQLNEAETQLTAAMAEKEATEQVWLPYYSRLKTSRVYVNELKSRLQSAASLYLLQRYERETLQQAHIGVAMESISLQLVLRDVRARLEDEQRSSLTDGHHQATESDRLAQQLSAVLGVPAAASQRNAACDRTN	not soluble
MRDAQRPDLSTTFTVLLAGGRGSRLHELTSRECKPALPFAGPRRIVDFTLANAARSGLTRMIVATQYRPETLAHHLESRWASRFAGGSLRLREGTAVTGSPQGYGGTAAAVAANLAELQSEGVRELVVLAADHVYEMDYADMVAAHRASGASATVAVDTVPTDRASEFGVVRTSEGGRIESFLEKPAVVPADPAIPGRAQVSMGIYVFDLDWLASVLRIIPGATQDFGHDILPLAVALGEAHAYRVPGDNFYWRDVGTLDAYRLAQLEFQTGEAPCALPPRIAASEHEMKAATGELIQFAFRMQTGGIALHSPRLGGDLPGRWTMLDESVLLPGARVAPGVRLTRTIVAPGTSVPAGLVIGEDPDEDARWFRRTEEGTVLVTTPMLARRAADRGRLVAPFADSRMGRSALEHHHHHH	not soluble
MSLVVKVKQKIPLKIKRMGINGEGIGFYQKTLVFVPGALKGEDIFCQITAVKRNFAEAKLLTVNKASKNRVKPACSVYETCGGCQIMHLAYPKQLDFKDDVIRQALKKFKPTGYEQFEIRPTLGMKKPDHYRAKLQFQLRSFGGTVKAGLFSQGSHRLVPIDNCLVQDQLTQDIINKITQLVDKYKLPIYNERKIAGIRTIMVRKAQASDQVQIIVVSSKEVRLANFIGELTKAFPQVKTVALNSNRSKSSEIYGDETEILWGQEAIHEEVLDYGFALSPRAFYQLNPQQTEVLYGEVVKALDVGSKDHIIDAYCGVGSIGFAFAGKVKSVRGMDIIPEAIEDAQKNAKAMGFDNAYYEAGKAEDIISKWYKQGYRADAVIVDPPRTGLDDKLLKTILHYQPKQMVYVSCNTSTLARDLVQLTKVYDVHYIQSVDMFPHTARTEAVVKLQKRVEGHHHHHH	not soluble
